Source: patent US20250034594A1, “RNA-GUIDED GENOME RECOMBINEERING AT KILOBASE SCALE” (THE BOARD OF TRUSTEES OF THE LELAND STANFORD JUNIOR …, priority 2021, published 2025)

Columns and labels:
Format in all cases: cell-based
gene editing with Cas9 = experiment: Screen of 322 new SSAP proteins, gene editing activity with Cas9 (Table 5); design: Cas9 with SSAP activity: scale not given here
Outline: (§1)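 Read-out is gene editing activity. Candidates come from sequence data mining, are made synthetically, and are tested alongside either nuclease-active Cas9 or catalytically dead dCas9.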

gene editing with dCas9 = experiment: Screen of 322 new SSAP proteins, gene editing activity with dCas9 (Table 5); design: dCas9 with SSAP activity: scale not given here
Outline: as §1

[1] = test system: gene editing with Cas9 and dCas9; experiment: Screen of 322 new SSAP proteins, activity across all experiments (Cas9 and dCas9, Table 5); design: scale not given here
Outline: as §1

Molecule | Cas9 with SSAP activity (gene editing with Cas9) | Cas9 with SSAP activity (normalized) (gene editing with Cas9) | dCas9 with SSAP activity (gene editing with dCas9) | dCas9 with SSAP activity (normalized) (gene editing with dCas9) | Activity across all experiments [1]
SSAP_53: SEQ ID NO: 222 (protein) STALTTLTSQLSQRFKLDGGEELLTTLKQTAFKGQVTDAQMTALLIVANQFGLNPWTKEIYAFPDKNGGIVPVVGVDGWARIINEHPQFDGMDFEMDGEQSCTCVIYRKDRTRPIRITEYMAECKKTGGGPWQSHPRRMLRHKAMIQCARMAFGFGGISDEDDAERIREKDITPQAEVVPKALEPYPADKFEENFEQWKSLIESGRRSADDVIAKIKSRNTMTDEQETRLRACGGEEGKTYENA | −1.644 | −1.327 | 0.088 | 0.036 | −0.778
SSAP_195: SEQ ID NO: 364; Isoptericola dokdonensis (protein, listed as Isoptericola dokdonensis) TQDLATAIADQQPAQRRTAFDLVESMRGELHKALPEHASIDNFLRLALTELKMNPQLGNCSGESLLGALMTAARVGLEVGGPLGQFYLTPRRLKRDGWAVVPIVGYRGLITLARRAGVGQVNAVVVHEGDTFREGASSERGFFFDWEPAVERGKPVGALAAARLAGGDVQHRYLSLAEVHERRDRGGFKDGSNSPWATDYDAMVRKTALRALVPLLPQSTALSFAVQADEQVQRYDAGDIDIPALDETDTEDTK | −1.761 | −1.896 | −6.406 | −0.956 | −4.084
SSAP_116: SEQ ID NO: 285; Lachnoclostridium sp. An14 (protein, listed as Lachnoclostridium sp.) TDVKQELERKVGKQDSTAVRLTKNMSIPDMIKALEPEIRRALPAVLTPERFLRMALSAVNNTPKLAECTPMSFIAAMMNAAQLGLEPNTPLGQAYLIPYKNKNQLECQFQIGYKGIIDLAYRTGQMQMIQAHAVHEFDDFEYEYGLNPKLIHRPGDGNRGEITYFYGLFKLVNGGFGFEVMNREAMEAFAQQYSQSYGSQYSPWVKNFEDMAKKTVIKKALKYGPVKAEFQKAISMDETIKTEIAVDMTEVQNEESE | −0.307 | −0.056 | −6.481 |  | −3.394
SSAP_139: SEQ ID NO: 308; Butyrivibrio sp. FCS006 (protein, listed as Butyrivibrio sp.) PYLFGGQMKEQEIKNQLAAKAVETTNPKLSKNMNIADLIKAIEPEIKKALPTVITPERFTRIALSALNTTPKLAECSQMSFLAALMNAAQLGLEVNSPLGQAYLIPYNNKGKLECQFQIGYKGMLGLAYRNPEIQTIQAQVVYENDDFKYELGLDSKLYHKPSLSDRGKVRCYYALYKLRNGGYGFEVMSRRDVEEYAKRYSKVTDSLYSPWANNFDSMAKKTVIKQLLKYAPLRTDLEKAMSMDESIKTRVSVDMSEVENEETFDAEVEV | −6.481 |  | −6.481 |  | −6.481
SSAP_136: SEQ ID NO: 305; Corynebacterium striatum (protein, listed as Corynebacterium striatum) GTNLEQRMAANNAPAKQNRPVTLADQIRSMESQFQLAMPKGMEAQQLVRDALTCLRQTPKLAECTPQSVLGGLMTCSQLGLRPGVLGHAYLLPFWDRKQGGMVAQLVVGYRGLVELAHRSGQIQSLIARTVYENDHFDVDYGLDDKLVHKPCMNGPKGNPIAYYAVAKFTTGGHSFIVMSKDEMLAYRDEFAKAKNKQGEVFGPWADNFDAMAHKTCVRQLAKWMPSSTDLDRGIAADETVRVDLSESALDYPQHVDGEVVDSKPAEDEAA | −0.594 | −0.262 | −6.395 | −0.952 | −3.495
SSAP_2: SEQ ID NO: 173 (protein) ATNESLKNQLTTKKETGLGSAGNTIKGLMNSPAIKKRFEEVLKQRAPQYMSSIVNLVNSDINLKKCDQMSVVASCMVAATLDLPVDKNLGYAWVVPYGNKAQFQLGYKGYVQLALRTGQYKSINVIEIHEGELIDWNPLTEELKIDFSKKESDAVIGYAGYFELLNGFKKSTYWTKEQITKHKNKFSKSDFGWKKDFDAMARKTVLRNMLSKWGILSIEMQNAYTADQGIIKNEIMETGEVKENIEYIEADFESYEDNSIEEGGANE | −7.779 | −1.250 | −6.114 | −1.204 | −6.946
SSAP_212: SEQ ID NO: 381; Streptomyces sp. NRRL S-1824 (protein, listed as Streptomyces sp.) SEISNAIATRDQGPAAQIEAYRDEYAALVPSHINVDQWVRLAAGAIRGNEDLMEAARNDIGVFLRELKTAARLGLEPGTEQFYLTARKSKAHGYALIIKGIVGYQGIVELIYRAGAVSSVIVEAVRANDTFSYVPGRDDRPIHEIDWFGGDRGPLVGVYAYAVMKDGAVSKVVVMNHKRVMEIKARSDSKNSQYSPWNTDEESMWLKSAIRQLAKWVPTSAEYKSEQLRAHAEAIGELASVASAPLPPQPSVLDDVDPDDEGPIEGELVD | 0.448 | 0.210 | −6.577 | −1.182 | −3.064
SSAP_127: SEQ ID NO: 296; Solibacillus sp. R5-41 (protein, listed as Solibacillus sp.) ATSNELKKQAQGQVTAKPTTPEGSLNALLKKMGPEIQRALPKHMDADRIARIALTAVRTTPKLLECDQLSFVAALMQSAQLGVEPNTGLGQAYLIPYGGKVQFQLGYKGLIDLAVRSGQYKAIYAHEVYADDEFSFAYGLHKDLVHVPSANPSGDPIGYYAVYHLKNGGYDFVYWTRERIDIHSKAFSQAVQKGWTSPWKTNYDAMAKKTVLKEVLKYAPKSIEMQKVVEADETIKNEVAPDMSNVIDVTDYSILEDPQDVTDAQ | 0.427 | 0.447 | −6.524 | −1.210 | −3.048
SSAP_281: SEQ ID NO: 450; Leucobacter luti (protein, listed as Leucobacter luti) SDLSQAAVAVKKSKTVEDYLTEYEPQFQRALGKSMDAAKFSQDALTAIKQTPQLGQADLQTLFGSLFLAAQLKLPVGGPLAQFHLTPRKRGDKLEVLPIIGFGGYVQLIMNTGLYSKVGAFLIYEKDYFDEGANSERGEFYDFKKSRGDRGPVVGVIAYVKLKGFDESQYVFLDADTIRSRHRPRYWEKTPWGSDEGEMFKKTGVRVLQKLLPKSVEAAPLALAADADQATVRKVDGIEDLTIQHDVVDAEVVPDGVPV | −1.121 | −0.672 | −6.188 | −0.973 | −3.655
SSAP_125: SEQ ID NO: 294; Lysinibacillus fusiformis (protein, listed as Lysinibacillus fusiformis) ATTNELKAKSQNQVQQNVTPEQSLNTLLKRMGPQIQRALPKHMDADRIARIALTAVRATPKLLECDQMSFVAALMQSAQLGVEPNTGLGQAYLIPYGKQVQFQLGYKGLIDLAVRSGQYKAIYAHEVYKEDEFSFAYGLHKDLVHVPSTNPEGEPIGYYAVYHLKNGGYDFVYWTRERIDKHAHEFSQAVKKGWTSPWKTNYDAMAKKTVLKEVLKYAPKSIELQKVVEADETIKTEVSEDMSDVIDVTDYSVIEDESAQEELIIEQ | −1.981 | −0.329 | −6.106 | −1.313 | −4.043
SSAP_200: SEQ ID NO: 369; Streptomyces (multispecies) (protein, listed as Streptomyces sp.) SQISNALATRDQGPAAQIEQYRDEYAALVPSHVNADQWVRLAVGAVRGDEKLMEAAQNDIGLFLREMKTAARLGLEPGTEQFYLTPRKSKPHGGRKVIKGIVGYQGIVELIYRAGAASTVIVEAVRENDTFRYVPGRDDRPVHEIDWFANDRGPLVGVYAYAVMKDGAVSKVVVLNRSRVMEFKAKSDSKHSEYSPWNTNEEAMWLKSAVRQLAKWVPTSAEYRRDQLLAHTETADSVVASVSTAPLPPQPSALDDADPDDDGPIDAELVD | −2.468 | −0.973 | −6.514 | −1.107 | −4.491
SSAP_167: SEQ ID NO: 336; Ruminococcus sp. (protein, listed as Ruminococcus sp.) GTSIQKNVENNALQKEKMPTMQAYIKKMEGEIKKALPSVMTPERFTRITLSALSTNPKLAATTPGSFLGAMMTAAQLGLEPNTPLGQAYLIPYSNKGKLECQFQIGYKGLIDLAYRSGSISVIQAHTVYENDDFEYELGLDPKLKHIPSKSADKGNPAWFYAVFKTKDGGYGFEVMSIEDIRSHAAKYSQSYNSAYSPWKTNFEEMAKKTVLKKALKYAPLKSDFVRQISTDETIKTKLSDDMFSVPAETIEVEGIEVDTETGEITEVDHA | −1.337 | −0.698 | −6.070 | −0.834 | −3.703
